The DeepSol protein solubility set

Assay: soluble on expression in E. coli; label from the status in PepcDB or PDB records
With “MGSDKIHHHHHHMPIHLIWGDDAAARDHAIETLIGDVVDQAWSSINLSRLDGADAGQASQALAEARTPPFGSGGRLVLLQRSPFCNACPSELANRFEDVLDLIPETSHLVLCNPNKPDGRLRTTKALQKLVKLKQASEKSFLLPAIWDGAGQQELVERTARDLGLQLEPEATAALVEAIGNDSTRLTAELQKLALHADIRQESATENQSPTLIKAENVAALIEGMATNALQVGDSLLAGHAGEAIARLDALLDAGEPALRIVATLTGQIRGWLWVSLLEQQGERDVNVIAKAAGIGNPKRIYVMRKQLQGRPPQRFLTLLSRLLEVEAALKRGAIPTDAFRDGLLSTP” the “soluble on expression in E. coli” value was “not soluble”.
In the case of “MERGRSDMEMINNMANCLILLSKAHQNDTKSRVFACKTCNKEFPSFQALGGHRASHRRSAALEGHAPPSPKRVKPVKHECPICGAEFAVGQALGGHMRKHRGGSGGGGGRSLAPATAPVTMKKSGGGNGKRVLCLDLNLTPLENEDLKLELGRFIF”, the “soluble on expression in E. coli” value is reported as “soluble”.
In the case of “MGSDKIHHHHHHMTTPFKRIHLIVMDSVGIGEGPDAAAFNDEGSHTLKHTLEGFKQKLPHLEQLGLGNIAPLPVVSKVTHPGAFYTKLSEASVGKDTMTGHWEIMGLNIMQPFKVYPNGFPAELVKEIESMTGRKVVANRPASGTQIIDEWGEHQMKTGDLIVYTSADPVLQIAAHEDVIPLEELYEICEKVRELTKDPKYLIGRIIARPYVGEPGNFTRTSNRHDYALKPFGRTVMNSLKDSGYDVIAIGKINDIYDGEGVTEAIRTKNNMDGMDQLIEVVKKDFEGISFLNLVDFDALYGHRRDKEGYAQAIKDFDLRLPELMNHLREDDLVIITADHGNDPIAKGTDHTREYIPLLMFSPKIKDYHELSQDTTFSSIGVTIADNFNVELPKYGKSYLKEMGVEHQ”, the “soluble on expression in E. coli” value is reported as “not soluble”.
For “MSLKWSAIPFQTLYRSIESGEFDFDLFKEVLPDLQNLNLNTDKLKNNASRSQLEKGEIELSDGSTFKVNQEFIFEAISLSDELNLDEIVACELILSGDTTANNGKVQYFLRRQYILQIVSFIVNCFHEDTELYQELIKNGALVSNILSAFKFIHTQLSEIKQQINKAQILENYNALFQQNIKFRRDFLLREYDILSQILYGLVDKGAIMKNKDFILSLLHHVSELDSNDFFIIYYTPAFFHLFASLRVLPDADVKLLHSQFMKDLKDDSIYTKPVKVALIFIFFAYFIGWCKEDPKRRADTMDFKTDVDEPMTSAVELGAIEQILIFAADTSIVEQDKSMELFYDIRSLLERHIPRLIPKQLLDDEKIFSQTTNSTYNPASATDNMSGRGLWNPSYPGMMSTTGTARLNSMPNNVNEYSYTTIVLSDQTQEFFLSSFDDVLQTIITDCAFLLTKIKDAEEDSLLSGEDLTLDDISLKADLERFFLSIYFFYASRPEYSCTFWSDKESNAYGFIEWCSRCNDNLMRSCFYLMVSSLSFGPENALNVYHYFGENSSISWKNIAQCLSDYTKKISNFNSSLHKRQQFSESTHNDIDSTAVALEEGLNEEAVIFLSSLLTLVGSVTYQVDEDVKSSLSKVFSDVLFEFTKINTPLVGAAFKVISNLVPKLESSRTKFWSFLDSLIFKDSSLNYSSESYRNAFTNVLTKYSDVLGFLQLFHNLISIHSREGHHHHHH”, the “soluble on expression in E. coli” value was “not soluble”.
For “MGSDKIHHHHHHMISDLESLGIDFKDEGENYVPKKDYSGNLVAKYVFDSNGISTDNITLKDLSGHGYDGTMSGVSIKDDSELGKCAYFNGSASVNFNNQIIPKGNKTIIITFKKDSGTQSNGQYEFLIEQGSGQGESITSWSIRFDSYKTACLNNLYFCNDDSKINMLNSHPAVFNVCDGKKHTAIFNYYDNKTNNTYCDSLKAHVCSFDFNGGEYRTADNSIIGQKYVGYIKSIEIYDDVVEFNSISTGTSLNKNIDQLIIGQTDNLVATIMPEDVTDKSVIWSSSDPSIVAVDENGKITALKVGEVSITVTTNDGSNLSQTCMVAVIDTTIPDKACLNISMTNGQVKQYYVGMDLVNKFISWYKLRSAGSEEPFYEFDITQLSEPGILRHDYVVFNKISSFTVDDYVK”, the “soluble on expression in E. coli” value was “not soluble”.
In the case of “MSLGKIRFGIVGTSNIANIFLRAASRVKDFELVAVYSRNLEKAREFGTLYGASIFFDDLEQMAKSKDIDAVYIASPNALHSKQTITCLKHKKHVLCEKSLASNLKEVKSMIKTAKDNNVLLMEAMRITCVPNFKAVKENLYKIGKIRRFFGSYCQYSSRYDKYKNGIIENAFKKELSNGALMDIGVYCIHPMVNLFGAPKTVKAVSHILQTGVDGEGSAVFQYDDMDAIIQYSKVADSYIPSEIQGEEGSIIIEKLNLFEKAIIKYRDGREEDISIPKEKAEEKPREIEGMYYELVEFISLINNNKIESNINSHENSIIVMEIMDEIRRQSSIVYPADSEGHHHHHH”, the “soluble on expression in E. coli” value is reported as “soluble”.
For “MAESYEEWKSFALKLDEETGAQEWKFDNSSPYFDAELISYRYTLLKRYRQQHRTLDLIYLLKEGLTYDIANIGHPMLFAATHVGTKKLIEDYIEEVSQSLAYIASSECITFQRKEKIEFFENCEKAYGQPALMFSGGATLGLFHTGVCKALIEQDLMPKVLSGSSAGAIMTGMLGISASEDIQNLLNGEQFFSDAFHFRKLRELIKGNGGIADVHYLKKFLIENLGDLTFEEAFKKSGLNINVAVAPYDATENPRIMNAIMTPNVLVWSAVLASCAVPVLFPPVRLTSKRYDGEHTPYMANTKWVDGSVRSDFPQERMARLYNLNYTIASQVNPHVVPFMQDDARRFRKDVLSWPERILRRQGKVLSMGLMDFTRQRLGAISPVRRLLDHGYGVVGQRYYGDVNIIAKYSLKHYAYTLQNPRPHLFKRLQREGERATWPKISSIETHARIGKTIQHCLEVLRFEEKKQQPESYYAEALEHHHHHH”, the “soluble on expression in E. coli” value was “soluble”.
In the case of “HHHHHHFADLVIQVIDELKQFGVSVKTYGAKGDGVTDDIRAFEKAIESGFPVYVPYGTFMVSRGIKLPSNTVLTGAGKRNAVIRFMDSVGRGESLMYNENVTTGNENIFLSSFTLDGNNKRLGQGISGIGGSRESNLSIRACHNVYIRDIEAVDCTLHGIDITCGGLDYPYLGDGTTAPNPSENIWIENCEATGFGDDGITTHHSQYINILNCYSHDPRLTANCNGFEIDDGSRHVVLSNNRSKGCYGGIEIKAHGDAPAAYNISINGHMSVEDVRSYNFRHIGHHAATAPQSVSAKNIVASNLVSIRPNNKRGFQDNATPRVLAVSAYYGVVINGLTGYTDDPNLLTETVVSVQFRARNCSLNGVVLTGFSNSENGIYVIGGSRGGDAVNISNVTLNNSGRYGVSIGSGIENVSITNISGIGDGINSPVALVSTINSNPEISGLSSIGYPTVARVAGTDYNDGLTLFNGAFRASTTSSGKIHSEGFIMGSTSGCEASVSKSGVLTSSSSKTSSERSLIAGSSTSEAKGTYNTILGSLGAVADEQFAALISASQSRASGNHNLILSSYGINTTGSYKVNGGFEKINWELDSLNGRIKARDTVTGGNTWSDFAEYFESLGGQVIETGYLVTLEKGKIRKAEKGEKIIGVISETAGFVLGESSFEWQGAVLKNEFGGIIYEEVTTEDGVKFKRPLPNPDFDPNKNYIPRSQRREWHVVGLLGQIAVRIDETVKQGHSIDAVGGVATDGDNFIVQEITTPYTKEKGYGVAIVLVK”, the “soluble on expression in E. coli” value is reported as “soluble”.
With “MKESLKDRIRLWKRLYVNAFENALNAIPNVKGVLLAYNTNIDAIKYLDADDLEKRVTEKGKEKVFEIIENPPEKISSIEELLGGILRSIKLGKAMEWFVESEEVRRYLREWGWDELRIGGQAGIMANLLGGVYRIPTIVHVPQNPKLQAELFVDGPIYVPVFEGNKLKLVHPKDAIAEEEELIHYIYEFPRGFQVFDVQAPRENRFIANADDYNARVYMRREFREGFEEITRNVELAIISGLQVLKEYYPDGTTYKDVLDRVESHLNILNRYNVKSHFEFAYTANRRVREALVELLPKFTSVGLNEVELASIMEIIGDEELAKEVLEGHIFSVIDAMNVLMDETGIERIHFHTYGYYLALTQYRGEEVRDALLFASLAAAAKAMKGNLERIEQIRDALSVPTNERAIVLEEELEKEFTEFENGLIDMVDRQLAFVPTKIVASPKSTVGIGDTISSSAFVSEFGMRKR” the “soluble on expression in E. coli” value was “soluble”.
With “MAHHHHHHMKEARKGPCVPWQQNYARWQHTTPVNHVTVMIALDTMNKDRGAPCLVPGSHRWREGGLLPSVPYDPAKDEAQQLNTIWEITNEEESEMLMDTPPATVDMKRGEALLIHPLTLFATHGNRSLDAVRCCFIHYMGGKTYATQNGPLLPHTTQFQAGAMIQGPFYPVVFDPAMTEELAMLPGESAAQNDITEEV” the “soluble on expression in E. coli” value was “not soluble”.
In the case of “YKIEKEQRLGLIPQREGNYEKNKNVLESATVKINYYSSKATSGQAGAAASAAFAKNNNTSDNTQQNQTSSVEAKSVNVTKHSFVQALKKVGFSGSNPLHFNMKLGNSSLSANGVDYYNAVKQALTELG”, the “soluble on expression in E. coli” value is reported as “not soluble”.
With “MSLNNPYIKMIGAHGTALGDIYGHVTLENFDNTDIYGTEINLVGQINIGETDFNLYGQVFDKSMPVWGETNTLLGLSWDKNYDNTYVQLAFAAHIVNATYKAFDSNFDEQGFNGGYAYLNISHDLSLFDQDFKFVWWQEFYFGRNEQYLELAGDMEDFGFNGQLRANWIINNNWSVGVSYRYAENNLGKKGYHDAFFYSVQYKFEGHHHHHH” the “soluble on expression in E. coli” value was “not soluble”.
For “GPGSMSHNVRPSRYAVSQSKARIFVGQLEPYVTEQDLYPVFSCYGKILHLNIVRHSTTVTPNEERRIPTAFVWYETTTEADAAIAALHNVFTFSSPDEEENKVRYIQVSYADKSPECTPWGRWQKTQAEIMRRTNPSGTGTGSNMPGQYSHITGGGPSTYSSSALNNDGGFTVSATGPAIRSSQSSGDISSMRYPRNPARGLRSMAPHIDHPEVQYYSSYDNLYNLGNRNQLYSMGGAANSMMGYTKHRGMPPHESTSSGDLGRGSTSSFWNMSEEVKKNTAANPNRFRHTARYTAPEPDEDLIMAAPTFTVTSGP”, the “soluble on expression in E. coli” value was “not soluble”.
With “MGSDKIHHHHHHMIVEMTGIHKSFSGNPVLKDVSFTLEKGEIHALMGENGAGKSTLMKILTGIYERDSGTVKIKGREVHYKHPKEAEADGLAVIHQELNILPELTVAENLFVGKERTYGKTGWIKSKEMNRLAEEKLAELGLKVKGTERAGNLSVGKQQLIEIAKALMTNADIIIMDEPTAALTDREIDTLFATVRELQKKGVTFVYISHRMEEIFSLCQRITVLRDGEYVGTKVIAETSFDEIVKMMVGRALGNRFPEHTLTPGDVKLEIKHLTRAGEFENVSLSVRAGEILGISGLMGAGRSELVETIFGYRKADSGEVWIDGKQAAIKGPDQAIAQGIGFVSEDRKSKGLIVDFSIRDNISLTNLSRISTSSWISSEKERSLYEELAKKLHVKASGPSQQAKSLSGGNQQKIVIAKWLGIEPKILILDEPTRGVDVGAKKEIYTIMNELAKQGVAIIMVSSELPEVIGLSTRVAVMFEGKLMHILERDELSEETIMHYATGGDKHVRQ” the “soluble on expression in E. coli” value was “not soluble”.
In the case of “MGSDKIHHHHHHMQQHPVVSREEWLVKRRALLAREKEAIHQRDAITAERLALPWVKVDTRYVFDTASGKKTLADLFDGRSQLMIYHFMLGPGWAAGCPGCSLVADHLGGTLAHLNHHDVTLIAVSRAPLPEIEAYRQRMGWQFPWASSFGTTFNHDFRVSFTPDELASGAVDYNYTSTQSAQANDELPGLSAFYKDAAGNVYHTYSTYARGLEDLIGTFLILDRAPKGRNESGPMEWVRRHDEYGDAPKANACYEG”, the “soluble on expression in E. coli” value is reported as “not soluble”.
In the case of “MRKIIHVDMDCFFAAVEMRDNPALRDIPIAIGGSRERRGVISTANYPARKFGVRSAMPTGMALKLCPHLTLLPGRFDAYKEASNHIREIFSRYTSRIEPLSLDEAYLDVTDSVHCHGSATLIAQEIRQTIFNELQLTASAGVAPVKFLAKIASDMNKPNGQFVITPAEVPAFLQTLPLAKIPGVGKVSAAKLEAMGLRTCGDVQKCDLVMLLKRFGKFGRILWERSQGIDERDVNSERLRKSVGVERTMAEDIHHWSECEAIIERLYPELERRLAKVKPDLLIARQGVKLKFDDFQQTTQEHVWPRLNKADLIATARKTWDERRGGRGVRLVGLHVTLLDPQMERQLVLGL”, the “soluble on expression in E. coli” value is reported as “soluble”.
